Reference: patent US11160888B2, “PET tracer for imaging of neuroendocrine tumors” (priority 2011, dated 2021)

Legend:
[1] = in vivo
[2] = test system: neuroendocrine tumor; assay: Comparative lesion detection, 64Cu-DOTATATE PET versus 111In-DTPA-octreotide SPECT; assay type: in vivo, human
Description: (§1) Fourteen consecutively enrolled patients participated in this pilot study and underwent PET scanning with the new tracer on several time points. Patients were eligible in case of a histopathologically confirmed neuroendocrine tumor including positive immunostainings for chromogranin A and synaptophysin. They got offered study inclusion in case of referral to conventional SRI as part of routine follow-up. The maximum allowed time interval between both imaging modalities was 60 days. According to local clinical routine there was no need for interruption of biotherapy e.g. withdrawal of long- or short-time acting somatostatin analogs. However, patients must not have undergone major surgical interventions or systemic chemotherapy between conventional SRI and the PET scanning. The study group consisted of thirteen patients with gastroenteropancreatic neuroendocrine tumors (2 foregut, 6 midgut, 5 NET of unknown origin) and one patient with a known mutation in the multiple endocrine neoplasia I gene, who was diagnosed with a bronchogenic NET ten years ago. Age ranged from 40-80 years. Gender distribution: four women, ten men. Ten of the tumors were active functioning causing classical carcinoid syndromes mainly due to hepatic tumor load. One patient had shown clinical and biochemical manifestations of a Zollinger-Ellison syndrome at time of diagnosis. Twelve patients were in advanced disease state—TNM stage IV according to most recently both UICC/AJCC and ENETS classifications. Two patients had undergone respectively R0- and R1-resections, both without detectable disease so far. Patient recruiting and follow-up was carried out at the Department of Abdominal Surgery C. SRI was performed at the Department of Clinical Physiology, Nuclear Medicine and PET. Both departments are part of the Neuroendocrine Tumor Center of Excellence, Rigshospitalet, University of Copenhagen, Denmark. All patients had given written informed consent prior to inclusion. The study was approved by the Danish Medicines Agency and the Regional Research Ethics Committee.
(§2) PET-CT images were acquired on an integrated PET-CT Siemens Biograph True X, multi-slice. […] Imaging was performed 1h, 3h and 24h after injection.
^111In-pentreotide was intravenously applied with a target dose of 200 MBq. The scans consisted of whole body planar scintigraphy and SPECT-CT: Planar images were acquired at 24 h (anterior and posterior whole-body scan, scan speed 5 cm/min, 512*1.024 matrix) and at 48 h (15 min static planar image (256*256 matrix) of the abdomen using a large field of view medium-energy collimator (Precedence 16-slice scanner, Philips Healthcare; VG Hawkeye, GE Healthcare). SPECT (20 sec/step, 128 angles, 128*128 matrix) over the abdomen was obtained at 24 or 48 h, and included also the chest if a pathological focus was suspected from the whole body scan. A low-dose CT was used as anatomical guide and for attenuation correction. SPECT and CT were fused and reviewed on dedicated workstations (EBW, Philips Healthcare; eNTEGRA, GE Healthcare).
Planar whole-body scans/SPECT-CT and PET-CT images were evaluated by two separate teams consisting of both a nuclear medicine physician and a radiologist. Both teams were briefed about the patients past medical history. When abnormal findings only detected on co-registered CT had led the attention to a specific anatomical site, this particular region was revaluated using the molecular imaging data. Judged visually, there also had to be clearly detectable lesion to be accounted as true SRI positive as this was the main focus of interest of the present study. However, all lesions were documented, whether identified on CT images or by SRI. Findings were reported according to their respective anatomical site and if possible absolute numbers of lesions per organ system.

[3] = human, in vivo
Description: No additional radiochemical purification step was required. […] The mean administered activity was 207 6 10 MBq (range, 193-232 MBq). […] This side effect was probably due to the somatostatin analog contained in the tracer.

[4] = 64Cu-DOTATATE PET biodistribution by SUV quantitation in neuroendocrine tumor patients; settings: both, human, pituitary, adrenals, spleen, iv, 200 MBq, total radioactivity
Description: as §1, §2
(§3) Planar whole-body scans/SPECT-CT and PET-CT images were evaluated by two separate teams consisting of both a nuclear medicine physician and a radiologist. Both teams were briefed about the patients past medical history. When abnormal findings only detected on co-registered CT had led the attention to a specific anatomical site, this particular region was revaluated using the molecular imaging data. Judged visually, there also had to be clearly detectable lesion to be accounted as true SRI positive as this was the main focus of interest of the present study. However, all lesions were documented, whether identified on CT images or by SRI. Findings were reported according to their respective anatomical site and if possible absolute numbers of lesions per organ system. […] While still remaining blinded to the opposite SRI results, this disparity was tried to balance by additionally providing the team evaluating ^111In-pentreotide SPECT-CT scans with the findings from contrast enhanced diagnostic CT. Interpretation of conventional SRI was performed based on the knowledge of normal tissue accumulation of ^111In-pentreotide. Interpretation of the findings from the new PET method was carried out in a similar manner being aware of possible differences regarding residence times and excretion patterns of the new tracer. Confirmation of the pointed-out lesions was sought by routine follow-up including CT, MRI, conventional SRI and biopsy if possible. Newly detected lesions on co-registered CT imaging were accepted for confirmations as well. Semi-quantitative analysis of tissue radioactivity concentrations was performed by drawing volumes of interests (VOI) around detected lesions and encompassing normal tissues with appreciable tracer uptake on fused PET-CT images.

[5] = test system: somatostatin receptor; assay: as above
Description: as §1, §2, §3

Question: Which absorbed dose [1] does the source give for CC(O)[C@H](NC(=O)[C@@H]1CSSC[C@H](NC(=O)[C@@H](Cc2ccccc2)NC(=O)CN2CCN(CC(=O)O)CCN(CC(=O)O)CCN(CC(=O)O)CC2)C(=O)N[C@@H](Cc2ccc(O)cc2)C(=O)N[C@H](Cc2c[nH]c3ccccc23)C(=O)N[C@@H](CCCCN)C(=O)N[C@@H](C(C)O)C(=O)N1)C(=O)O (stereo partly shown) [64Cu-DOTATATE, metal not drawn] here?
Answer: 0.19 mGy/MBq

Question: What about the estimated effective dose [1] of the same molecule?
Answer: 6.3 mSv

Question: And the “image quality compared with SPECT with 111In-DTPA-octreotide” value ([2]; PET)?
Answer: considerably better image quality

Question: And the “number of lymph node lesions revealed” value ([2]; all 14 patients)?
Answer: 98

Question: What about the “Number and localization of lesions detected” value (shortened to “Number and localization”) ([2]; patient no. 2) of the same molecule?
Answer: Negative

Question: What about the “Number and localization” value ([2]; patient no. 4) of the same molecule?
Answer: Negative

Question: What about the “Number and localization” value ([2]; patient no. 5) of the same molecule?
Answer: Lymph nodes (>30)

Question: And the “Number and localization” value ([2]; patient no. 7)?
Answer: Pancreas (1), liver (>10) bones (>10)

Question: What about the “Number and localization” value ([2]; patient no. 10) of the same molecule?
Answer: Lymph nodes (10)

Question: What about the “Number and localization” value ([2]; patient no. 11) of the same molecule?
Answer: Liver (>10)

Question: What about the “adverse or clinically detectable pharmacologic effects” value [3] of the same molecule?
Answer: no adverse or clinically detectable pharmacologic effects

Question: And the “changes in vital signs” value [3]?
Answer: No significant changes

Question: And the “subjects who experienced self-limiting nausea” value [3]?
Answer: 4 subjects

Question: What about the SUV [4] of the same molecule?
Answer: ≤ 20 SUV

Question: And the “activity distribution on late scan” value ([5]; 24 h after injection)?
Answer: activity washout from most organs and lesions

Question: And the SUVmax range ([5]; bone lesions, 1 h)?
Answer: 30-117

Question: And the SUVmax range ([5]; bone lesions, 3 h)?
Answer: 27-111

Question: What about the “tracer accumulation category (high, moderate, faint)” value (from here on “tracer accumulation category”) ([5]; liver and spleen) of the same molecule?
Answer: Moderate to high

Question: What about the SUVmax range ([5]; liver lesions, 1 h) of the same molecule?
Answer: 20-81

Question: And the SUVmax range ([5]; liver lesions, 3 h)?
Answer: 26-81

Question: What about the SUVmax range ([5]; lymph nodes (lesions), 1 h) of the same molecule?
Answer: 9-110

Question: What about the SUVmax range ([5]; lymph nodes (lesions), 3 h) of the same molecule?
Answer: 9-115

Question: What about the “tracer accumulation category” value ([5]; pituitary, adrenal glands, kidneys, renal pelvis, urinary bladder) of the same molecule?
Answer: High

Question: And the “tracer accumulation category” value ([5]; salivary glands, in 12 of 14 patients)?
Answer: faint to moderate

Question: And the “tracer accumulation category” value ([5]; thyroid gland, in 2 patients)?
Answer: moderate
